Reference: publication PMC6143588, “A variant NuRD complex containing PWWP2A/B excludes MBD2/3 to regulate transcription at active genes” (Nature Communications, 2018)
Blank lines part the entries; values can stand above or below the binder they belong to. Where no end group is shown, it is not given here. The star is where a group is joined. 5FAM = O=C1OC2(c3ccc(O)cc3Oc3cc(O)ccc32)c2ccc(C(=O)*)cc21

Assays:
[1] = target: T1, HDAC1:MTA1 162–354 complex (UniProt Q13547 1-482; Q13330 162-354); assay: fluorescence polarisation; fluorescence anisotropy of 5-FAM PWWP2A peptide with unlabelled HDAC1:MTA1 162-354 complex; room temperature; 50 mM Tris pH 7.5, 150 mM KAc, 0.15 mg/mL BSA, 0.03% Tween-20; excitation 480 nm, emission 535 nm; conditions: both partners purified
T1 construct: HDAC1, untagged; MTA1 residues 162-354; Unlabelled complex formed beforehand, used in the anisotropy titration; also called MTA1:HDAC1 complex; HM; source: HEK293F, co-transfected, purified (FLAG resin, TEV cleavage, gel filtration); not shown: His10, N-terminal, cleaved; Flag3, N-terminal, cleaved

[2] = target: T2, His10-Flag3-TEV-MTA1 162-546 (UniProt Q13330 162-546); assay: co-IP + SEC; co-expression in HEK293F of His10-Flag3-TEV-MTA1 162-546 with untagged HDAC1, RBBP4 and PWWP2A 1-373; FLAG resin, TEV cleavage, Superdex S200 in 25 mM Tris-Cl pH 7.5, 50 mM potassium acetate, 0.5 mM TCEP; SDS-PAGE; conditions: partners not purified
T2 construct: MTA1 residues 162-546 (ELM2 and SANT domains and an additional domain that recruits RBBP4); The complex was captured by the Flag tag and then cut from the resin with TEV before gel filtration; also called FLAG-MTA1 162-546; MTA1-long; source: HEK293F, co-transfected, purified on FLAG resin, TEV cleavage, gel filtration; not shown: His10, N-terminal, kept; Flag3, N-terminal, kept
T2 sequence (looked up): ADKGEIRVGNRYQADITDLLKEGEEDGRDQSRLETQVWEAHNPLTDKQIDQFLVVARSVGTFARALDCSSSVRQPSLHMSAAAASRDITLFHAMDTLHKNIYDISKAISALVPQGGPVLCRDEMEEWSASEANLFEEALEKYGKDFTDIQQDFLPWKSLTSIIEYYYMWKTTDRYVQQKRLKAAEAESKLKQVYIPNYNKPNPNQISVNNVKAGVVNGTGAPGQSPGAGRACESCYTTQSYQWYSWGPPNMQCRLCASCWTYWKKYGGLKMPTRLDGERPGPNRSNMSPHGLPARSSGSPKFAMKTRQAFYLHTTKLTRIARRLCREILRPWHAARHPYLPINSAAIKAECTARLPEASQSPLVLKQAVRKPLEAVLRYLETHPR

T1 sequence (Q13547 whole entry, chain 1 of 2, one chain of several, the tested form may be a part): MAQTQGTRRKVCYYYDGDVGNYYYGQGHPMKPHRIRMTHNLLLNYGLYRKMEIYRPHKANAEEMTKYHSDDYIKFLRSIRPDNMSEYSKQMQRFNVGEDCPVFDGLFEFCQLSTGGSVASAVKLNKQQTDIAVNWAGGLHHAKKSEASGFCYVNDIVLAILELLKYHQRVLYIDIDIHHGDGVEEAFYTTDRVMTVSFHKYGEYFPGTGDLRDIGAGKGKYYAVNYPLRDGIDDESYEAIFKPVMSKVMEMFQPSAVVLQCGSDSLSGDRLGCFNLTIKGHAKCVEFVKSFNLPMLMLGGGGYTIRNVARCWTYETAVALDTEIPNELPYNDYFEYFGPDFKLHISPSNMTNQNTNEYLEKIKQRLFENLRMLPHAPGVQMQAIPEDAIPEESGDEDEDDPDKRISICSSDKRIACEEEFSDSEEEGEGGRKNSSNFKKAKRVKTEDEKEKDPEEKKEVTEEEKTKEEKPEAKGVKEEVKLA

Kd [1]: 20 to 100 µM
B1: fluorescein-labelled PWWP2A peptide (residues 311–325) (peptide, UniProt Q96N64 311-325, looked up)
peptide: 5FAM-NAIKLRPRQVLCDKC
modifications: cysteine pairing not given here
notes: PWWP2A residues 311-325, contains the motif R/QPRQV/L; source: synthetic peptide (Cambridge Research Biochemicals)

stoichiometry N [2]: ~1
B2: PWWP2A1–373, untagged, co-expressed in HEK293F cells (domain or fragment, UniProt Q96N64 1-373, looked up)
chain: MAAVAAEAAATAASPGEGGAGEAEPEMEPIPGSEAGTDPLPVTATEASVPDGETDGQQSAPQADEPPLPPPPPPPGELARSPEAVGPELEAEEKLSVRVAESAAAAPQGGPELPPSPASPPEQPPAPEEREEPPLPQPVAPALVPPAGGDSTVSQLIPGSEVRVTLDHIIEDALVVSFRFGEKLFSGVLMDLSKRFGPHGIPVTVFPKREYKDKPEAMPLQSNTFQEGTEVKCEANGAVPDDPSPVPHPELSLAESLWTSKPPPLFHEGAPYPPPLFIRDTYNQSIPQPPPRKIKRPKRKMYREEPTSIMNAIKLRPRQVLCDKCKNSVVAEKKEIRKGSSATDSSKYEDKKRRNESVTTVNKKLKTDHKVDG
notes: source: HEK293F, co-transfected, co-purified with FLAG-MTA1 (FLAG resin, gel filtration)
